Test results as given in patent publication US20180140578A1 (University of Texas, published 2018).

Columns and labels:
DCAF15-3xFLAG [1] = target: T1, DCAF15-3xFLAG (human, UniProt Q66K64 1-600); assay: pull-down of 100 nM RBM39Δ150 P272S by DCAF15-3xFLAG on anti-FLAG beads with rising indisulam, western blot (FIG. 4C)
T1 construct: also called DDB1/DCAF15-3xFLAG; not shown: C-terminal 3xFLAG tag

DCAF15-3xFLAG [2] = target: T1, DCAF15-3xFLAG; assay: pull-down by DCAF15-3xFLAG on anti-FLAG beads, western blot (FIG. 4C)
CUL4A = target: T2, CUL4A (human, UniProt Q13619 1-759, limits assumed); assay: anti-FLAG co-immunoprecipitation from HCT-116 cells, western blot (FIG. 3E)
T2 construct: also called Cullin 4A

CUL4B = target: T3, CUL4B (human, UniProt Q13620 1-913, limits assumed); assay: as above
T3 construct: also called Cullin 4B

DDB1 = target: T4, DDB1 (human, UniProt Q16531 2-1140); assay: anti-FLAG immunopurification from HCT-116 lysate supplemented with indisulam, western blot (FIG. 4A)
T4 construct: also called Q16531_DDB1_HUMAN
T4 sequence (Q16531 2-1140 limits assumed): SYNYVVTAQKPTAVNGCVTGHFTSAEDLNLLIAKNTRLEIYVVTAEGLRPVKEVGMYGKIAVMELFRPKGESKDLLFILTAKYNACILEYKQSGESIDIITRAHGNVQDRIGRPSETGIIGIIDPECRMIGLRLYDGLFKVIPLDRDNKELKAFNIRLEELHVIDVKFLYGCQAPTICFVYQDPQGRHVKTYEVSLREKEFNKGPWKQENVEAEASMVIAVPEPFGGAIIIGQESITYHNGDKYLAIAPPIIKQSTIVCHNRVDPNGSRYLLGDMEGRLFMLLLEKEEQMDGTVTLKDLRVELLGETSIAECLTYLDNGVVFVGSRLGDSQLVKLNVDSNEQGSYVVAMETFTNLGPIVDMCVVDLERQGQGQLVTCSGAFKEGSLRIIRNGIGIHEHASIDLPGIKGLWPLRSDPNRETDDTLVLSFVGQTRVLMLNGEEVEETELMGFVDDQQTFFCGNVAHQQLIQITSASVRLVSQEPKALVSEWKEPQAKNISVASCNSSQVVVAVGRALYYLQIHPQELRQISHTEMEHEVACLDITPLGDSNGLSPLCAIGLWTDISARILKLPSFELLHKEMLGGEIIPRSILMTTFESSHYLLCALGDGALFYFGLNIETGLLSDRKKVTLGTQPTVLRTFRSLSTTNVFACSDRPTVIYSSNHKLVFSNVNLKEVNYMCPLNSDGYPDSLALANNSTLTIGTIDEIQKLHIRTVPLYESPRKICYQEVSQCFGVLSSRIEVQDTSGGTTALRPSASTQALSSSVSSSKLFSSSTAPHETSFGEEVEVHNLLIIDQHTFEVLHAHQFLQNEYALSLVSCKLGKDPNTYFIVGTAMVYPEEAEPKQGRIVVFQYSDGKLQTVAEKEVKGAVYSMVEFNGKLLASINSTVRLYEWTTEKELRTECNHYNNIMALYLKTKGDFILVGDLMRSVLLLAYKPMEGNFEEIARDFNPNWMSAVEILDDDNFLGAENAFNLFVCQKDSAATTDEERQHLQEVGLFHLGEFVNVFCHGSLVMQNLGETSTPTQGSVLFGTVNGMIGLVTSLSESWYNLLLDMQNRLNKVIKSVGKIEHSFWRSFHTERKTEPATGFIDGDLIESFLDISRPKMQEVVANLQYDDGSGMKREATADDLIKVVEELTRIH

T1 sequence (Q66K64 whole entry): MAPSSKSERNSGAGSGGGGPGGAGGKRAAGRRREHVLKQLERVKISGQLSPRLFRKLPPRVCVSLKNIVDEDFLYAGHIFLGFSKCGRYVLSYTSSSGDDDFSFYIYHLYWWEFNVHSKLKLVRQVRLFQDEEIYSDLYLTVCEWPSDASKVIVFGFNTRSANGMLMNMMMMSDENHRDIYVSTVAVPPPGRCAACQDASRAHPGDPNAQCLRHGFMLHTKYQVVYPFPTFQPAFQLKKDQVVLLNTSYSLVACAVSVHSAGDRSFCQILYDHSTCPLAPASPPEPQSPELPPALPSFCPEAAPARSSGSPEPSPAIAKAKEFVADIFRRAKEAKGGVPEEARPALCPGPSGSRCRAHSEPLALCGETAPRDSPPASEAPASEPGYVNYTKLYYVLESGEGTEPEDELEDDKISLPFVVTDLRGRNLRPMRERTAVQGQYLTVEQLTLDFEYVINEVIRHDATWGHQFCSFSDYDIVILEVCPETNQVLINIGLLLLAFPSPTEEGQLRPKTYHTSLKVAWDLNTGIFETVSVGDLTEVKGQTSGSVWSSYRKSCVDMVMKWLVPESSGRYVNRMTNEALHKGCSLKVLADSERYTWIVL
T3 sequence (Q13620 whole entry): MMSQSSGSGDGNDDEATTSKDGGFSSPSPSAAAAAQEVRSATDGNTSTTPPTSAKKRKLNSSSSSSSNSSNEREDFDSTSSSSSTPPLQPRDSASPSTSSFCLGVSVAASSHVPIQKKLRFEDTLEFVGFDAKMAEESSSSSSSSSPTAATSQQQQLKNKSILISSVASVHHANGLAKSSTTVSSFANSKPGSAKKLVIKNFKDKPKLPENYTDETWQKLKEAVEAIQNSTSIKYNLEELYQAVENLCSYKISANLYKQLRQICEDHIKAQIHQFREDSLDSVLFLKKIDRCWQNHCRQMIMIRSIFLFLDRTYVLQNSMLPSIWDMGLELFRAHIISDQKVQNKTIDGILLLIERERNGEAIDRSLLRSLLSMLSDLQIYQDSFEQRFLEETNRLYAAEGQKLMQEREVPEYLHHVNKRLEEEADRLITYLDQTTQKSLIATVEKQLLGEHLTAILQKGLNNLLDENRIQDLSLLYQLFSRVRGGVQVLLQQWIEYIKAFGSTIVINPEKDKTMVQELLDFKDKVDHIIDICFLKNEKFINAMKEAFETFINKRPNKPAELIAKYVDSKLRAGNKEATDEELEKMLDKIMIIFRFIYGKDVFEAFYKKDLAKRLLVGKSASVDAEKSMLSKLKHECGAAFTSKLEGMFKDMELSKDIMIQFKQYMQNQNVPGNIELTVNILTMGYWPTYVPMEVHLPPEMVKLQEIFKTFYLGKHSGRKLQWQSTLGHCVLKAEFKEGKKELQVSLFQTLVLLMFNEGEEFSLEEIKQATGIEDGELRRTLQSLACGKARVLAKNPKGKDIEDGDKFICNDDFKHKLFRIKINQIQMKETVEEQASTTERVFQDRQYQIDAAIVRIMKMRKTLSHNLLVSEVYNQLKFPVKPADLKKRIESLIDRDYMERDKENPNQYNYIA
T2 sequence (Q13619 whole entry): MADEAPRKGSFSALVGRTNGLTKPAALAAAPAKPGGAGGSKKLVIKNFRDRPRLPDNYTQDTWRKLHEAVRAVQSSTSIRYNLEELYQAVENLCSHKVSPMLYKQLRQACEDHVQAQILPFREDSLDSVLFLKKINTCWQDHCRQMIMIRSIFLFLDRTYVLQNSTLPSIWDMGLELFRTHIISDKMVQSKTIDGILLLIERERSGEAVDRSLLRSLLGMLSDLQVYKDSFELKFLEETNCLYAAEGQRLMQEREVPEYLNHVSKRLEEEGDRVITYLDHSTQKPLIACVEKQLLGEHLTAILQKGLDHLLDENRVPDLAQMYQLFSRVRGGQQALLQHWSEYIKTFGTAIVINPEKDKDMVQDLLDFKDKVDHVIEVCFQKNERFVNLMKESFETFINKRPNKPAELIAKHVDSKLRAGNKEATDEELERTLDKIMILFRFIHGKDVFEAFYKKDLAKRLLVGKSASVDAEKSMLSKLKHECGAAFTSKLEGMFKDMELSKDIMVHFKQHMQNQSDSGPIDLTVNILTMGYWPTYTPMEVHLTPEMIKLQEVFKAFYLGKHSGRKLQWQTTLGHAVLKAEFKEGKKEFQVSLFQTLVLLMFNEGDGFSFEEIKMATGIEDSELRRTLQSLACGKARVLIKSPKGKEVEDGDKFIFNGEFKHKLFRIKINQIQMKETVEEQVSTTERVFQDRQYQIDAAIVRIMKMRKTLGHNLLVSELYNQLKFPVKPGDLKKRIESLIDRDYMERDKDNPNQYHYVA

B1: RBM39Δ150 P272S (other, human, UniProt Q14498 151-530, looked up)
chain: DARTVFCMQLAARIRPRDLEEFFSTVGKVRDVRMISDRNSRRSKGIAYVEFVDVSSVPLAIGLTGQRVLGVPIIVQASQAEKNRAAAMANNLQKGSAGPMRLYVGSLHFNITEDMLRGIFESFGRIESIQLMMDSETGRSKGYGFITFSDSECAKKALEQLNGFELAGRPMKVGHVTERTDASSASSFLDSDELERTGIDLGTTGRLQLMARLAEGTGLQIPPAAQQALQMSGSLAFGAVAEFSFVIDLQTRLSQQTEASALAAAASVQPLATQCFQLSNMFNPQTEEEVGWDTEIKDDVIEECNKHGGVIHIYVDKNSAQGNVYVKCPSIAAAIAAVNALHGRWFAGKMITAAYVPLPTYHNLFPDSMTATQLLVPSRR
notes: domain: RRM1, RRM2, and RRM3 domains; Sf9 expression as for RBM39Δ150
fold higher indisulam concentration required for recruitment, against wild type RBM39Δ150 (DCAF15-3xFLAG [1]): 100 fold

B2: RBM39Δ150 E271Q (other, human, UniProt Q14498 151-530, looked up)
chain: DARTVFCMQLAARIRPRDLEEFFSTVGKVRDVRMISDRNSRRSKGIAYVEFVDVSSVPLAIGLTGQRVLGVPIIVQASQAEKNRAAAMANNLQKGSAGPMRLYVGSLHFNITEDMLRGIFQPFGRIESIQLMMDSETGRSKGYGFITFSDSECAKKALEQLNGFELAGRPMKVGHVTERTDASSASSFLDSDELERTGIDLGTTGRLQLMARLAEGTGLQIPPAAQQALQMSGSLAFGAVAEFSFVIDLQTRLSQQTEASALAAAASVQPLATQCFQLSNMFNPQTEEEVGWDTEIKDDVIEECNKHGGVIHIYVDKNSAQGNVYVKCPSIAAAIAAVNALHGRWFAGKMITAAYVPLPTYHNLFPDSMTATQLLVPSRR
notes: domain: RRM1, RRM2, and RRM3 domains; Sf9 expression as for RBM39Δ150; also called E271Q variant of RBM39Δ150
binding result (DCAF15-3xFLAG [2]): no binding (tested: 10 µM indisulam)

B3: RBM39 G268V-3xFLAG (other, human, UniProt Q14498 1-530, looked up)
chain: MADDIDIEAMLEAPYKKDENKLSSANGHEERSKKRKKSKSRSRSHERKRSKSKERKRSRDRERKKSKSRERKRSRSKERRRSRSRSRDRRFRGRYRSPYSGPKFNSAIRGKIGLPHSIKLSRRRSRSKSPFRKDKSPVREPIDNLTPEERDARTVFCMQLAARIRPRDLEEFFSTVGKVRDVRMISDRNSRRSKGIAYVEFVDVSSVPLAIGLTGQRVLGVPIIVQASQAEKNRAAAMANNLQKGSAGPMRLYVGSLHFNITEDMLRVIFEPFGRIESIQLMMDSETGRSKGYGFITFSDSECAKKALEQLNGFELAGRPMKVGHVTERTDASSASSFLDSDELERTGIDLGTTGRLQLMARLAEGTGLQIPPAAQQALQMSGSLAFGAVAEFSFVIDLQTRLSQQTEASALAAAASVQPLATQCFQLSNMFNPQTEEEVGWDTEIKDDVIEECNKHGGVIHIYVDKNSAQGNVYVKCPSIAAAIAAVNALHGRWFAGKMITAAYVPLPTYHNLFPDSMTATQLLVPSRR
notes: From HCT-116 cells; for the ubiquitination assay expressed from pCDNA3.1 in 293T cells; also called RBM39-3xFLAG G268V; not shown: C-terminal 3xFLAG tag
binding result (CUL4A): no binding (tested: 10 µM indisulam)
binding result (CUL4B): no binding (tested: 10 µM indisulam)
binding result (DDB1): no binding (tested: 10 µM indisulam)
